The supplement of paper PMC10567573

B1: TRIM35 (parent)
chain: PTCPVCKDRASPADLRTNHTLNNL

Variants of: B1
Experiment: protein stability index of a GFP-peptide fusion (GPS, HEK-293T) (PSI 1-6); higher = more stable
Settings: c terminus: a fixed tail appended
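Note: lentivirally expressed fusions sorted by FACS into six bins by GFP to DsRed ratio, PSI derived from sequencing read proportions per bin multiplied by bin number.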

| Variant | protein stability index |
| --- | --- |
| PTCPVCKDRASPARLRTNHTLNNL [D14R] | 2.94 |
| PTCPVCKDRASPADLRTNCTLNNL [H19C] | 2.95 |
| PTCPVCKDRASPADLRTNATLNNL [H19A] | 2.86 |
| PTCPVCKDRASPADLRTNPTLNNL [H19P] | 3.19 |
| PTCPVCKDRASPADLRTNGTLNNL [H19G] | 3.33 |
| PTCPVCKDRASPADLRTNVTLNNL [H19V] | 3.04 |
| PTCPVCKDRASPADLRTNWTLNNL [H19W] | 2.86 |
| PTCPVCKDRASPADLRTNDTLNNL [H19D] | 3.61 |
| PTCPVCKDRASPADLRTNYTLNNL [H19Y] | 3.13 |
| PTCPVCKDRASPADLRTNFTLNNL [H19F] | 2.4 |
| PTCPVCKDRASPADLRTNRTLNNL [H19R] | 3.14 |
| PTCPVCKDRASPADLRTNITLNNL [H19I] | 2.5 |
| PTCPVCKDRASPADLRTNETLNNL [H19E] | 3.79 |
| PTCPVCKDRASPADLRTNQTLNNL [H19Q] | 3.28 |
| PTCPVCKDRASPADLRTNLTLNNL [H19L] | 3.02 |
| PTCPVCKDRASPADLRTNNTLNNL [H19N] | 3.09 |
| PTCPVCKDRASPADLRTNTTLNNL [H19T] | 2.81 |
| PTCPVCKDRASPADLRTNSTLNNL [H19S] | 3.09 |
| PTCPVCKDRASPADLRTNMTLNNL [H19M] | 3.09 |
| PTCPVCKDRASPADLRTNKTLNNL [H19K] | 3.21 |
| PTCPVCKDRASPLDLRTNHTLNNL [A13L] | 2.31 |
| PTCPVCKDRASPRDLRTNHTLNNL [A13R] | 3.2 |
| PTCPVCKDRASPYDLRTNHTLNNL [A13Y] | 2.59 |
| PTCPVCKDRASPWDLRTNHTLNNL [A13W] | 1.81 |

| Variant | protein stability index |
| --- | --- |
| PTCPVCKDRASPFDLRTNHTLNNL [A13F] | 2.26 |
| PTCPVCKDRASPHDLRTNHTLNNL [A13H] | 3.1 |
| PTCPVCKDRASPEDLRTNHTLNNL [A13E] | 3.86 |
| PTCPVCKDRASPMDLRTNHTLNNL [A13M] | 2.58 |
| PTCPVCKDRASPIDLRTNHTLNNL [A13I] | 2.53 |
| PTCPVCKDRASPQDLRTNHTLNNL [A13Q] | 2.55 |
| PTCPVCKDRASPSDLRTNHTLNNL [A13S] | 2.87 |
| PTCPVCKDRASPVDLRTNHTLNNL [A13V] | 2.62 |
| PTCPVCKDRASPGDLRTNHTLNNL [A13G] | 3.23 |
| PTCPVCKDRASPPDLRTNHTLNNL [A13P] | 3.29 |
| PTCPVCKDRASPNDLRTNHTLNNL [A13N] | 3.27 |
| PTCPVCKDRASPDDLRTNHTLNNL [A13D] | 3.13 |
| PTCPVCKDRASPTDLRTNHTLNNL [A13T] | 2.75 |
| PTCPVCKDRASPKDLRTNHTLNNL [A13K] | 3.65 |
| PTCPVCKDRASPCDLRTNHTLNNL [A13C] | 3.69 |
| PTCPVCKDRASPADLRTFHTLNNL [N18F] | 2.53 |
| PTCPVCKDRASPADLRTWHTLNNL [N18W] | 2.16 |
| PTCPVCKDRASPADLRTQHTLNNL [N18Q] | 3.3 |
| PTCPVCKDRASPADLRTVHTLNNL [N18V] | 2.62 |
| PTCPVCKDRASPADLRTLHTLNNL [N18L] | 2.6 |
| PTCPVCKDRASPADLRTCHTLNNL [N18C] | 3.6 |
| PTCPVCKDRASPADLRTIHTLNNL [N18I] | 2.31 |
| PTCPVCKDRASPADLRTSHTLNNL [N18S] | 2.81 |
